Measured values as given in article PMC9065133.
Values joined by “and” are separate entries in the source; they are usually repeats but may differ in a detail not shown here. Equal entries are not always repeated.

Assays:
Assay in all cases: SEC-MALLS
[1] = target: MVV IN H12N (maedi-visna virus (KV1772 isolate))
[2] = target: MVV IN QQ207GP (maedi-visna virus (KV1772 isolate))
[3] = target: MVV IN QQQ211PGG (maedi-visna virus (KV1772 isolate))
[4] = target: MVV IN chimera QQQ211PFV304-314 (portion of the PFV IN CCD-CTD linker between MVV IN Gln210 and Gln214) (maedi-visna virus (KV1772 isolate) | prototype foamy virus (PFV))
[5] = target: maedi-visna virus (MVV) integrase, wild type, KV1772 isolate (maedi-visna virus (KV1772 isolate))
[6] = target: MVV IN E154Q; details: IN injected at 2 mg/mL (bar); Superdex-200 column; parent: est. 170; read off a plot
[7] = target: MVV IN F223A; details: IN injected at 2 mg/mL (bar); Superdex-200 column; parent: est. 170; read off a plot
[8] = target: MVV IN H12N; details: IN injected at 2 mg/mL (bar); Superdex-200 column; parent: est. 170; read off a plot
[9] = target: MVV IN I272E; details: IN injected at 2 mg/mL (bar); Superdex-200 column; parent: est. 170; read off a plot
[10] = target: MVV IN QQ207GP; details: IN injected at 2 mg/mL (bar); Superdex-200 column; parent: est. 170; read off a plot
[11] = target: MVV IN QQQ211PGG; details: IN injected at 2 mg/mL (bar); Superdex-200 column; parent: est. 170; read off a plot
[12] = target: MVV IN R231E; details: IN injected at 2 mg/mL (bar); Superdex-200 column; parent: est. 170; read off a plot
[13] = target: MVV IN V252A; details: IN injected at 2 mg/mL (bar); Superdex-200 column; parent: est. 170; read off a plot
[14] = target: MVV IN V252D; details: IN injected at 2 mg/mL (bar); Superdex-200 column; parent: est. 170; read off a plot
[15] = target: MVV IN V263E; details: IN injected at 2 mg/mL (bar); Superdex-200 column; parent: est. 170; read off a plot
[16] = target: MVV IN W245A; details: IN injected at 2 mg/mL (bar); Superdex-200 column; parent: est. 170; read off a plot
[17] = target: MVV IN W245E; details: IN injected at 2 mg/mL (bar); Superdex-200 column; parent: est. 170; read off a plot
[18] = target: MVV IN W245L; details: IN injected at 2 mg/mL (bar); Superdex-200 column; parent: est. 170; read off a plot
[19] = target: MVV IN Y225A; details: IN injected at 2 mg/mL (bar); Superdex-200 column; parent: est. 170; read off a plot
[20] = target: MVV IN Y261A; details: IN injected at 2 mg/mL (bar); Superdex-200 column; parent: est. 170; read off a plot
[21] = target: MVV IN Y261E; details: IN injected at 2 mg/mL (bar); Superdex-200 column; parent: est. 170; read off a plot

Chain of maedi-visna virus (MVV) integrase, wild type, KV1772 isolate (P03370 1226-1506 limits assumed): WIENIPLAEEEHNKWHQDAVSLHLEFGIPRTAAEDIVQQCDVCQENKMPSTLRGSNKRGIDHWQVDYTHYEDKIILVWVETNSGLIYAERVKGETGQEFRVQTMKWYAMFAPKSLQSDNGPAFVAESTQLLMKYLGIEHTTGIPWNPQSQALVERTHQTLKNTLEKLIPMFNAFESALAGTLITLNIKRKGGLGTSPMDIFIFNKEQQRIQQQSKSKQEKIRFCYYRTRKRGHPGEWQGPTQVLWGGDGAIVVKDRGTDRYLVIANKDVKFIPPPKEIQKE

In the case of MVV IN H12N (enzyme), the stoichiometry N [1] is reported as 2.

For MVV IN QQ207GP (enzyme), the stoichiometry N [2] was 2.

MVV IN QQQ211PGG (enzyme) gave a stoichiometry N [3] of 2.

Substance “MVV IN chimera QQQ211PFV304-314 (portion of the PFV IN CCD-CTD linker between MVV IN Gln210 and Gln214) (enzyme)” has a stoichiometry N [4] of 2.

With “maedi-visna virus (MVV) integrase, wild type, KV1772 isolate (enzyme)” the stoichiometry N [5] was 4 and 8.

“maedi-visna virus (MVV) integrase, wild type, KV1772 isolate E154Q” showed an other: average molecular mass [6] of 180 kDa.

“maedi-visna virus (MVV) integrase, wild type, KV1772 isolate F223A” gave an other: average molecular mass [7] of 120 kDa.

For “maedi-visna virus (MVV) integrase, wild type, KV1772 isolate H12N”, the other: average molecular mass [8] was 40 kDa.

In the case of “maedi-visna virus (MVV) integrase, wild type, KV1772 isolate I272E”, the other: average molecular mass [9] is reported as 100 kDa.

For “maedi-visna virus (MVV) integrase, wild type, KV1772 isolate Q207G; Q208P”, the other: average molecular mass [10] was 65 kDa.

“maedi-visna virus (MVV) integrase, wild type, KV1772 isolate Q211P; Q212G; Q213G” showed an other: average molecular mass [11] of 65 kDa.

“maedi-visna virus (MVV) integrase, wild type, KV1772 isolate R231E” was tested, and the other: average molecular mass [12] was 180 kDa.

Work on “maedi-visna virus (MVV) integrase, wild type, KV1772 isolate V252A” yielded an other: average molecular mass [13] of 120 kDa.

Substance “maedi-visna virus (MVV) integrase, wild type, KV1772 isolate V252D” has an other: average molecular mass [14] of 80 kDa.

Work on “maedi-visna virus (MVV) integrase, wild type, KV1772 isolate V263E” yielded an other: average molecular mass [15] of 110 kDa.

“maedi-visna virus (MVV) integrase, wild type, KV1772 isolate W245A” gave an other: average molecular mass [16] of 120 kDa.

Work on “maedi-visna virus (MVV) integrase, wild type, KV1772 isolate W245E” yielded an other: average molecular mass [17] of 90 kDa.

Substance “maedi-visna virus (MVV) integrase, wild type, KV1772 isolate W245L” has an other: average molecular mass [18] of 110 kDa.

In the case of “maedi-visna virus (MVV) integrase, wild type, KV1772 isolate Y225A”, the other: average molecular mass [19] is reported as 120 kDa.

With “maedi-visna virus (MVV) integrase, wild type, KV1772 isolate Y261A” the other: average molecular mass [20] was 100 kDa.

“maedi-visna virus (MVV) integrase, wild type, KV1772 isolate Y261E” showed an other: average molecular mass [21] of 78 kDa.
